From patent US20250313632A1
One block for each molecule: values may come before it.

Experiments:
[1] = biological target: human B7-H3 expressed on A375 tumor cells (human) (UniProt Q5ZPR3); experiment: flow cytometry on A375 cells, MFI(PE); unit from the axis Conc (nM); fit value of a flat control curve
[2] = biological target: human B7-H3 expressed on A375 tumor cells (human) (UniProt Q5ZPR3); experiment: flow cytometry on A375 cells, MFI(647); unit from the axis Conc (nM); fit value of a flat control curve
[3] = biological target: human B7-H3 expressed on A375 tumor cells (human) (UniProt Q5ZPR3); experiment: flow cytometry on A375 cells, MFI(PE); unit from the axis Conc (nM); fit value of a flat control curve; remark: listed apart in the source
[4] = biological target: human B7-H3 expressed on A375 tumor cells (human) (UniProt Q5ZPR3); experiment: as above; remark: listed apart in the source
[5] = biological target: human B7-H3 expressed on A375 tumor cells (human) (UniProt Q5ZPR3); experiment: flow cytometry on A375.S2 cells, MFI(647); unit from the axis Conc (nM); fit value of a flat control curve
[6] = biological target: human B7-H3 expressed on A375 tumor cells (human) (UniProt Q5ZPR3); experiment: flow cytometry on A375 cells, MFI(PE); unit from the axis Conc(nM); fit value of a flat control curve
[7] = biological target: human B7-H3 protein (human) (UniProt Q5ZPR3); experiment: Octet (BLI) epitope binning on captured human B7-H3; competitor AHP06345 (self)
[8] = biological target: human B7-H3 protein (human) (UniProt Q5ZPR3); experiment: Octet (BLI) epitope binning on captured human B7-H3; competitor AHP05562
[9] = biological target: human B7-H3 expressed on A375 tumor cells (human) (UniProt Q5ZPR3); experiment: flow cytometry on A375 cells, MFI(PE); unit from the axis Conc(nM)
[10] = biological target: human B7-H3 protein (human) (UniProt Q5ZPR3); experiment: Octet (BLI) epitope binning on captured human B7-H3; competitor CA84D
[11] = biological target: human B7-H3 (4Ig) protein (his tag) (human) (UniProt Q5ZPR3); experiment: SPR (Biacore T200), antibody captured on Protein A chip, B7-H3 injected, 1:1 model
[12] = biological target: human B7-H3 expressed on A375 tumor cells (human) (UniProt Q5ZPR3); experiment: flow cytometry on A375 cells, MFI(647); unit from the axis Conc (nM)
[13] = biological target: human B7-H3 expressed on A375 tumor cells (human) (UniProt Q5ZPR3); experiment: flow cytometry on A375 cells, MFI(PE); unit from the axis Conc (nM)
[14] = biological target: human B7-H3 expressed on A375 tumor cells (human) (UniProt Q5ZPR3); experiment: as above; remark: listed apart in the source
[15] = biological target: human B7-H3 expressed on A375 tumor cells (human) (UniProt Q5ZPR3); experiment: flow cytometry on A375 cells, MFI(647); unit from the axis Conc (nM); fit value of a flat curve
[16] = biological target: human B7-H3 expressed on A375 tumor cells (human) (UniProt Q5ZPR3); experiment: flow cytometry on A375 cells, MFI(PE); unit from the axis Conc (nM); remark: listed apart in the source
[17] = biological target: human B7-H3 expressed on A375 tumor cells (human) (UniProt Q5ZPR3); experiment: as above; remark: listed apart in the source
[18] = biological target: human B7-H3 expressed on A375 tumor cells (human) (UniProt Q5ZPR3); experiment: as above; remark: listed apart in the source
[19] = biological target: human B7-H3 protein (human) (UniProt Q5ZPR3); experiment: Octet (BLI) epitope binning on captured human B7-H3; competitor AHP06345
[20] = biological target: human B7-H3 protein (human) (UniProt Q5ZPR3); experiment: Octet (BLI) epitope binning on captured human B7-H3; competitor 72D1D11
[21] = biological target: human B7-H3 expressed on A375 tumor cells (human) (UniProt Q5ZPR3); experiment: flow cytometry on A375.S2 cells, MFI(647); unit from the axis Conc (nM)
[22] = biological target: human B7-H3 expressed on A375 tumor cells (human) (UniProt Q5ZPR3); experiment: flow cytometry on A375 cells, MFI(PE); unit from the axis Conc (nM); remark: listed apart in the source

EC50 [12]: 0.00064 µM
EC50 [13]: 0.0004 µM
EC50 [14]: 0.00058 µM
B2: 72D1D11-z3 (antibody, V domains shown)
VH: QVQLVQSGSELKKPGASVKVSCKASGYTFTNLGLNWVRQAPGQGLEWMGWINTAGGQPTYAEDFKGRFVFSLDTSVSTAYLQISSLKAEDTAVYYCARDDGYYYTMDYWGQGTTVTVSS
VL: DIVMTQSPLSLPVTPGEPASISCRSSQSLVHSNGKTYLHWYLQKPGQSPQLLIYKVSNRFSGVPDRFSGSGSGTDFTLKISRVEAEDVGVYYCSQSTHVPWTFGGGTKLEIK

EC50 [15]: 115 µM
B3: 72D1D11-z3p7 (antibody, V domains shown)
VH: QVQLVQSGSELKKPGASVKVSCKASGYTFTNLGLNWVRQAPGQGLEWMGWINTAGGQPTYAEDFKGRFVFSLDTSVSTAYLQISSLKAEDTAVYYCARDLGYYYTMDYWGQGTTVTVSS
VL: DIVMTQSPLSLPVTPGEPASISCRSSQSLVHSNAKTYLHWYLQKPGQSPQLLIYKVSNRFSGVPDRFSGSGSGTDFTLKISRVEAEDVGVYYCSQSTHVPWTFGGGTKLEIK

EC50 [15]: 22.4 µM
B4: 72D1D11-z3p8 (antibody, V domains shown)
VH: QVQLVQSGSELKKPGASVKVSCKASGYTFTNLGLNWVRQAPGQGLEWMGWINTAGGQPTYAEDFKGRFVFSLDTSVSTAYLQISSLKAEDTAVYYCARDAGYYYTMDYWGQGTTVTVSS
VL: DIVMTQSPLSLPVTPGEPASISCRSSQSLVHSNAKTYLHWYLQKPGQSPQLLIYKVSNRFSGVPDRFSGSGSGTDFTLKISRVEAEDVGVYYCSQSTHVPWTFGGGTKLEIK

Further lines, the molecule ahead of its results:

Molecule: hIgG1 (antibody)
EC50 [1]: 0.0021 µM
EC50 [2]: 0.066 nM
EC50 [3]: 0.192 µM
EC50 [4]: 0.036 µM
EC50 [5]: 0.044 nM

Molecule: hIgG (antibody)
EC50 [1]: 1970 µM
EC50 [6]: 0.014 µM

B1: AHP06345 (antibody, V domains shown)
VH: QVQLVQSGAEVKKPGESLRISCKGSGYSFTSYWISWVRQMPGKGLEWMGRIDPSDSYTNYSPSFQGHVTISADKSISTAYLQWSSLKASDTAMYYCARHTGYYGSGIGMDVWGQGTLVTVSS
VL: HVILTQPPSVSAAPGQKVTISCSGSSSNIGNNYVSWYRQLPGTAPKLLIYDNNQRPSGIPDRFSGSKSGTSATLGITGLQTGDEADYYCATWDSSLGVVVFGGRTKLTVL
inhibition ratio [7]: 91.8%
inhibition ratio [8]: -6.36%
EC50 [9]: 0.0027 µM
inhibition ratio [10]: -3.77%
Kd [11]: 0.00147 µM
koff [11]: 0.000254 s⁻¹
kon [11]: 173000 M⁻¹ s⁻¹

B5: MGA017 (antibody, from a related filing, V domains shown)
VH: EVQLVESGGGLVKPGGSLRLSCAASGFTFSSYGMSWVRQAPGKGLEWVATINSGGSNTYYPDSLKGRFTISRDNAKNSLYLQMNSLRAEDTAVYYCARHDGGAMDYWGQGTTVTVSS
VL: DIQMTQSPSSLSASVGDRVTITCRASESIYSYLAWYQQKPGKAPKLLVYNTKTLPEGVPSRFSGSGSGTDFTLTISSLQPEDFATYYCQHHYGTPPWTFGQGTRLEIK
EC50 [16]: 0.00034 µM
EC50 [17]: 0.00019 µM
inhibition ratio [8]: 91.5%
EC50 [9]: 0.00015 µM
EC50 [18]: 0.00026 µM
EC50 [12]: 0.00041 µM
inhibition ratio [19]: -0.09%
inhibition ratio [20]: 98.9%
EC50 [21]: 0.00037 µM
inhibition ratio [10]: 3.65%
EC50 [13]: 0.00022 µM
EC50 [14]: 0.0003 µM
EC50 [22]: 0.00028 µM
Kd [11]: 0.00179 µM
koff [11]: 0.00132 s⁻¹
kon [11]: 737000 M⁻¹ s⁻¹
